Test results: EP4242225A1 (Consejo Superior De Investigaciones Científicas, dated 2023)

Tests used:
Experiment in all cases: ELISA, biotin-labeled bispecific hcAb on plate-bound RBD-Fc
[1] = molecular target: T1, RBD-Fc, gamma variant (B.1.1.28.1 or P.1) (SARS-CoV-2; human, UniProt P0DTC2 332-534)
T1 construct: range 332-534; also called gamma RBD

[2] = molecular target: T2, RBD-Fc, kappa variant (B.1.617.1) (SARS-CoV-2; human, UniProt P0DTC2 332-534)
T2 construct: range 332-534; also called kappa RBD

[3] = molecular target: T3, RBD-Fc, beta variant (B.1.351) (SARS-CoV-2; human, UniProt P0DTC2 332-534)
T3 construct: range 332-534; also called beta RBD

[4] = molecular target: T4, RBD-Fc, delta variant (B.1.617.2) (SARS-CoV-2; human, UniProt P0DTC2 332-534)
T4 construct: range 332-534; also called delta RBD

Measured: binding result

B1: bispecific hcAb 1.29-1.26 (bispecific antibody)
heavy: QVQLVESGGGSVQAGGSLRLSCAASGYTINTDAVAWFRQAPGKGDERVAVIYTGSGNTNYADSVKGRFTISQDNAKNTVYLQMNSLKPEDTALYYCASGYYGASGYDFNNWGQGTQVTVSSGGGGSGGGGSGGGGSQVQLVESGGGLVQAGGSLRLSCAATGYTWSSVCMGWFRQAPGKEREGVAGIPSGRNRPYYADSVKGRFTISQDNAKNAVFLLMNSLKPEDTAIYYCAPCSAPHDPEYNYWGQGTQVTVSS
binds: all assays above

B2: bispecific hcAb 1.29-1.10 (bispecific antibody)
heavy: QVQLVESGGGSVQAGGSLRLSCAASGYTINTDAVAWFRQAPGKGDERVAVIYTGSGNTNYADSVKGRFTISQDNAKNTVYLQMNSLKPEDTALYYCASGYYGASGYDFNNWGQGTQVTVSSGGGGSGGGGSGGGGSQVQLVESGGGSVQAGGSLRLSCAASGYTYSTCRKGWYRQAPGKERELVASITADGATYYLDSVKGRLTISQDNAKNTVYLQMNSLKPEDTAVYYCAASVKDFTCTFNSWGQGTQVTVSS
binds: all assays above
